Data as given in patent US7867500B2, “Cofactor that modulates steroid receptor activities” (The United States of America as represented by the …, priority 2004, dated 2011).

Assays:
Format in all cases: cell-based
RXR α = biological target: T1, RXR α (Homo sapiens, UniProt P19793); assay: Mammalian two-hybrid assay with VP16 full length receptor: RXRα; conditions: 1 μM 9-cis-retinoic acid
T1 construct: plus VP16 fused to the indicated full length receptors; expressed in transfected cells; host or cells: CV-1
T1 sequence (P19793 1-462): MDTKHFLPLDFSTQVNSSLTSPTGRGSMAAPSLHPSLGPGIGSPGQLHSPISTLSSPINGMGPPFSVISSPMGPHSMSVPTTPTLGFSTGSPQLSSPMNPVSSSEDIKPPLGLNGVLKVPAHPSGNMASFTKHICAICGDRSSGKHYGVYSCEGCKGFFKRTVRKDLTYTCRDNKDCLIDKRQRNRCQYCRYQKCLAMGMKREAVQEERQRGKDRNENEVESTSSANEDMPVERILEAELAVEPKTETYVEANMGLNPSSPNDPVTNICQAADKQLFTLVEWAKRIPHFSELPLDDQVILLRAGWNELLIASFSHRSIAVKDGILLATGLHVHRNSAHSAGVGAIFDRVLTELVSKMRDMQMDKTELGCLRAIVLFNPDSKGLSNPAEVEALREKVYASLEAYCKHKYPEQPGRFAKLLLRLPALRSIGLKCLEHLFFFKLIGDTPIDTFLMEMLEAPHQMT
Protocol: (§1) FIG. 6C1-3 illustrate the association of STAMP with assorted steroid/nuclear receptors, including glucocorticoid receptors (GRs), progesterone receptors (PRs), androgen receptors (ARs), estrogen receptors (ER α or β), PPARγ2 receptors, thyroid receptor beta (TR), and retinoid (α) receptors (RAR α or RXR α). Triplicate samples of CV-1 cells were transfected (as described for FIG. 6B) with GAL, or GAL fused to TIF2.4 or STAMP834C, plus VP16 fused to the indicated full length receptors and incubated with the appropriate steroid (1 μM Dex, 20 nM R5020, 1 nM R1881, 0.1 μM triiodothyronine, or 1 μM estradiol, roziglitazone, or 9-cis-retinoic acid). The average relative luciferase activities of 2-3 experiments±S.E.M. were then plotted. FIG. 6C1 illustrates the effects of STAMP association upon GR, PR and AR induced expression. FIG. 6C2 illustrates the effects of STAMP association upon ERα, ERβ and PPARγ2 induced expression. FIG. 6C3 illustrates the effects of STAMP association upon TR, RARα and RXRα induced expression.
(§2) These assays were conducted as described (He et al., 2002). […]

RAR α = biological target: T2, RAR α (Homo sapiens, UniProt P10276); assay: Mammalian two-hybrid assay with VP16 full length receptor: RARα; conditions: 1 μM 9-cis-retinoic acid
T2 construct: plus VP16 fused to the indicated full length receptors; expressed in transfected cells; host or cells: CV-1
T2 sequence (P10276 1-462): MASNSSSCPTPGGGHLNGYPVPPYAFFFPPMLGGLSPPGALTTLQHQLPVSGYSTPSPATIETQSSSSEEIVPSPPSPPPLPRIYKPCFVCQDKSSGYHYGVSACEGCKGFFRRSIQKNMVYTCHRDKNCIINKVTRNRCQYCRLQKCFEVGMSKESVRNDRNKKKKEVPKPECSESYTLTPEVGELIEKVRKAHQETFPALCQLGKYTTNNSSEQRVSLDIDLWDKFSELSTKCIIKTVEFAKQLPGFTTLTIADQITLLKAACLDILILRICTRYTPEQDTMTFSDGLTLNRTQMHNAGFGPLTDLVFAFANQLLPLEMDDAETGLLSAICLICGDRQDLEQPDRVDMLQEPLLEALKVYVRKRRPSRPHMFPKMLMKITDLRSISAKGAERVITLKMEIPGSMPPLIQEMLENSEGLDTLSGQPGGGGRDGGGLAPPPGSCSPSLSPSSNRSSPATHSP
Protocol: as §1, §2

androgen receptors (ARs) = biological target: T3, androgen receptors (ARs) (Homo sapiens, UniProt P10275); assay: Mammalian two-hybrid assay with VP16 full length receptor: AR; conditions: 1 nM R1881
T3 construct: plus VP16 fused to the indicated full length receptors; expressed in transfected cells; host or cells: CV-1
T3 sequence (P10275 1-920): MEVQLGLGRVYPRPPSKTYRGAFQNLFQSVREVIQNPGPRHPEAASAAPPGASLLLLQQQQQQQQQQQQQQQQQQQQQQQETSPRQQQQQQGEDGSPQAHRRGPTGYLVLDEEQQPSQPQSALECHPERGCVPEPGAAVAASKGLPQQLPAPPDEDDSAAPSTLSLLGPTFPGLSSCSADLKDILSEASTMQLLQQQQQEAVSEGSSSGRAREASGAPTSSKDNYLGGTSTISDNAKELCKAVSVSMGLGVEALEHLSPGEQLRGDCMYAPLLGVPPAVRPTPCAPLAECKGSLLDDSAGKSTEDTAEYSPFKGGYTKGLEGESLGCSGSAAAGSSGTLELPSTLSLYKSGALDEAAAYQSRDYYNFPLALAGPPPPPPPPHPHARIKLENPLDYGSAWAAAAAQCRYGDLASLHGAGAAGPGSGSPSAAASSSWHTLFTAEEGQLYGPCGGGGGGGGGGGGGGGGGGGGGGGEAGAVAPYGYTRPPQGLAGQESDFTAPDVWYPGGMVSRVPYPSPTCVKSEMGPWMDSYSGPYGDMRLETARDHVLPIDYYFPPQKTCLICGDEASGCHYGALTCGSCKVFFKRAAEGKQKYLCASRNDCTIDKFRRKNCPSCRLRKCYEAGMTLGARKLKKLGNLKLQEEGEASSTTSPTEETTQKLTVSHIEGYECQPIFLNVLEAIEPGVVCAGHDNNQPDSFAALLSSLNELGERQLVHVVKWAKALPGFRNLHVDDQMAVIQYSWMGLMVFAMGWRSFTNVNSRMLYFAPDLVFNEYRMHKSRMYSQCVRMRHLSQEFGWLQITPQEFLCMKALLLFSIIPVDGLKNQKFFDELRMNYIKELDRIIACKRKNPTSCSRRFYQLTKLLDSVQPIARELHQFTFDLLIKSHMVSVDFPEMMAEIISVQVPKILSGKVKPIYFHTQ
T3 sequence (Q6EMB2 838-1281 F1267S partner limits assumed): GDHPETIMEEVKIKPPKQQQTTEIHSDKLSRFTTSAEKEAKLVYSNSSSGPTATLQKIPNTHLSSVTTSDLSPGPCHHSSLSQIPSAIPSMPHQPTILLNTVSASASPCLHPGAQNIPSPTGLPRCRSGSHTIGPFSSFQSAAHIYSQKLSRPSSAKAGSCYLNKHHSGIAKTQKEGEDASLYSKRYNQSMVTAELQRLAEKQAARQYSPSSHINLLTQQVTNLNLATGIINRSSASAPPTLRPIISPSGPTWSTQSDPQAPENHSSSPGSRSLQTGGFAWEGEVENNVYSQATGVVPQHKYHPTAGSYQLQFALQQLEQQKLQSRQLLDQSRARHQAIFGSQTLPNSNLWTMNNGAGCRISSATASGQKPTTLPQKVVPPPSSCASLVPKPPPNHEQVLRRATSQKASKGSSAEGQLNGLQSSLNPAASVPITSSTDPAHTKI
Protocol: as §1, §2

p300 = biological target: T4, p300 (Homo sapiens, UniProt Q09472); assay: Mammalian two-hybrid assay with p300; conditions: data not shown
T4 construct: expressed in transfected cells; host or cells: CV-1 (the same two-hybrid assay)
Protocol: These assays were conducted as described (He et al., 2002). In particular, the recommended procedure for the Mammalian Matchmaker two-hybrid assay kit (Clontech) was modified slightly by changing from a chloramphenicol acetyltransferase reporter to a Luciferase Reporter pFRLuc (Stratagene), which is under the control of five repeats of the upstream activating sequence for the binding of GAL4.

T4 sequence (Q09472 whole entry, species assumed): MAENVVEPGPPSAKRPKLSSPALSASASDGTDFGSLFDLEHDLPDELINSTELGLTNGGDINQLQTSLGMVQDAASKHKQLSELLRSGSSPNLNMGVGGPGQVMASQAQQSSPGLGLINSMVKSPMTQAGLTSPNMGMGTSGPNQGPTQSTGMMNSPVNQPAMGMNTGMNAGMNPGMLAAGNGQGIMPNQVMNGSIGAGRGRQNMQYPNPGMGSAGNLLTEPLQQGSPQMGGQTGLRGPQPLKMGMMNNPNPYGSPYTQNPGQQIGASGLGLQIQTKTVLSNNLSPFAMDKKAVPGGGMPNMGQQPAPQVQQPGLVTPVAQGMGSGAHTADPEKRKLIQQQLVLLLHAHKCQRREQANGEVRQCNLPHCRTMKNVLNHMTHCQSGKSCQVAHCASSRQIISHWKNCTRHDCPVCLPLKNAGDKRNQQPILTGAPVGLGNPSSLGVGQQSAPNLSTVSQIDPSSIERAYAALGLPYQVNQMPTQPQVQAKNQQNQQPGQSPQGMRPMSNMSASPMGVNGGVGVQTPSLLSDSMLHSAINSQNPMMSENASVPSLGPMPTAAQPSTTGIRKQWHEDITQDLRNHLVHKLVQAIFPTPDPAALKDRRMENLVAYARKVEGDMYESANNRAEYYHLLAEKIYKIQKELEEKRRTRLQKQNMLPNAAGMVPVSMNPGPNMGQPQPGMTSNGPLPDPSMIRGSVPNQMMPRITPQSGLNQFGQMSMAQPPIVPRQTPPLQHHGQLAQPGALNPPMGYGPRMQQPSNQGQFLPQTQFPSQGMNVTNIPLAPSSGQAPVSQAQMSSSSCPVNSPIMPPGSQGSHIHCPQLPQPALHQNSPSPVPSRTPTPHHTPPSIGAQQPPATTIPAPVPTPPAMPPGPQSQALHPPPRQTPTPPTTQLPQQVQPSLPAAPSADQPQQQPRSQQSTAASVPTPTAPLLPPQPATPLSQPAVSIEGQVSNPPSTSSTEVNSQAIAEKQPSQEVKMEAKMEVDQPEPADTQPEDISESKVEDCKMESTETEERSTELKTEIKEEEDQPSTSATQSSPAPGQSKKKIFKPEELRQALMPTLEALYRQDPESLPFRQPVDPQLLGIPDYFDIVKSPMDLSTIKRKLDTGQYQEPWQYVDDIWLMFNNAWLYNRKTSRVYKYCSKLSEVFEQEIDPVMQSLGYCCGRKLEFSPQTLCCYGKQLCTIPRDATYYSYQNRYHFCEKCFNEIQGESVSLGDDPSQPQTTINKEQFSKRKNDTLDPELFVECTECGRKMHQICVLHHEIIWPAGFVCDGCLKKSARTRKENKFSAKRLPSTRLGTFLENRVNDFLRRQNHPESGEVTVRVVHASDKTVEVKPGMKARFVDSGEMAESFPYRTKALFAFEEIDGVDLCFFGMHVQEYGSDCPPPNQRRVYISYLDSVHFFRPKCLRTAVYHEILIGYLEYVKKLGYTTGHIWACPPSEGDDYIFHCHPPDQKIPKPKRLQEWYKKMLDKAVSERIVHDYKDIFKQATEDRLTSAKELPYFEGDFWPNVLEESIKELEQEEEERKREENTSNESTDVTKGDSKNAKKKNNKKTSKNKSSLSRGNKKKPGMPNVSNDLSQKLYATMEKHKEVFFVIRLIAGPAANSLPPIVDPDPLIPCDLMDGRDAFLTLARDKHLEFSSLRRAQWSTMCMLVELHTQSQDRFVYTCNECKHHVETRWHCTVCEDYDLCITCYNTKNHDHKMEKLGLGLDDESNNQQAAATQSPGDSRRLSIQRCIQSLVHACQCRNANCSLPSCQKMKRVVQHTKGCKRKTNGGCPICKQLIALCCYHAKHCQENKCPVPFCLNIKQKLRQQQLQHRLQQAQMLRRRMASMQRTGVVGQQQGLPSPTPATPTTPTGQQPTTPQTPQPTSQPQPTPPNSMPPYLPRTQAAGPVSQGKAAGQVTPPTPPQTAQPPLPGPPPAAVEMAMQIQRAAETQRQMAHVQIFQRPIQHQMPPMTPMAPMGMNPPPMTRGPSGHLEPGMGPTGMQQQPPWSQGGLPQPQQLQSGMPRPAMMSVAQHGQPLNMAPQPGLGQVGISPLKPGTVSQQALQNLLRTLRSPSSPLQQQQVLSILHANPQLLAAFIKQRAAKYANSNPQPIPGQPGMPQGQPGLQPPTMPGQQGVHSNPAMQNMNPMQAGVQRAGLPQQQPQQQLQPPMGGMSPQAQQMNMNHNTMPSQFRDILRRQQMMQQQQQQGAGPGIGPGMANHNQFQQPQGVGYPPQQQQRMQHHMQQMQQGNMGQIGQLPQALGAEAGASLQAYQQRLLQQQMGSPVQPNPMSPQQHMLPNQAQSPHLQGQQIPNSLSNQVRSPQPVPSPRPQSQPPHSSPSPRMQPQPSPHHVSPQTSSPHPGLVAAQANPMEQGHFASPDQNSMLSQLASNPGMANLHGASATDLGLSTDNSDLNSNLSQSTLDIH

| Molecule | interaction with RXR α (RXR α) | interaction with retinoid (α) receptor (RAR α) | interaction with agonist-bound, full length AR (androgen receptors (ARs)) | association with p300 (p300) |
| --- | --- | --- | --- | --- |
| STAMP834C: STAMP fragment amino acids 834-1277, receptor interaction domain (RID) (protein) GDHPETIMEEVKIKPPKQQQTTEIHSDKLSRFTTSAEKEAKLVYSNSSSGPTATLQKIPNTHLSSVTTSDLSPGPCHHSSLSQIPSAIPSMPHQPTILLNTVSASASPCLHPGAQNIPSPTGLPRCRSGSHTIGPFSSFQSAAHIYSQKLSRPSSAKAGSCYLNKHHSGIAKTQKEGEDASLYSKRYNQSMVTAELQRLAEKQAARQYSPSSHINLLTQQVTNLNLATGIINRSSASAPPTLRPIISPSGPTWSTQSDPQAPENHSSSPGSRSLQTGGFAWEGEVENNVYSQATGVVPQHKYHPTAGSYQLQFALQQLEQQKLQSRQLLDQSRARHQAIFGSQTLPNSNLWTMNNGAGCRISSATASGQKPTTLPQKVVPPPSSCASLVPKPPPNHEQVLRRATSQKASKGSSAEGQLNGLQSSLNPAASVPITSSTDPAHTKI | lack of interaction | lack of interaction | interacted | – |
| 6-6CL1: STAMP fragment amino acids 623-834, coactivator interaction domain (CID) (protein) ENTPKENSMKVREWNNKGGHCCKLETQELEPKFNLMQILQDNGNLSKMQARIAFSAYLQHVQIRLMKDSGGQTFSASWAAKEDEQMELVVRFLKRASNNLQHSLRMVLPSRRLALLERRRILAHQLGDFIIVYNKETEQMAEKKSKKKVEEEEEDGVNMENFQEFIRQASEAELEEVLTFYTQKNKSASVFLGTHSKISKNNNNYSDSGAKG | – | – | – | negligible association |
